Data reported in doi:10.1101/2025.10.12.681846v1 (bioRxiv, 2025).
Read-outs that look alike come from different tables or passages of the source. Values belong to the substance of their own block, whether it stands above or below them.

Legend:
[1] = Biodistribution and intra-tissue distribution in diabetic mice; format: in vivo; settings: three days after s.c. 10 mg/kg; CD31 staining
[2] = SPECT/CT imaging of 131I-labelled insulin-129 in diabetic mice; format: in vivo; settings: s.c. 10 mg/kg
type 1 diabetic mice [3] = assay: In vivo glucose-responsive insulin release in mice; settings: for initial PIL: before glucose 3 g/kg
[4] = system: STZ-induced type 1 diabetic mice; assay: Type 1 diabetes treatment study in mice; format: in vivo, C57BL/6 mice
type 1 diabetic minipigs [5] = assay: Type 1 diabetes treatment study in minipigs; format: in vivo, Bama minipigs; settings: for time BG remained within the target range (70 to 200 mg/dL): n = 3, statistical time 0-168 h for insulin-129 and 0-24 h for Lantus
mouse IgG1-Fc = mouse IgG1-Fc (Mus musculus, UniProt P01868); assay: SPR binding to mouse IgG1-Fc; settings: for Kd: read-out: KD for IgG1-Fc, SPR, 25 °C, DPBS pH 7.4
type 1 diabetic mice [6] = assay: Intraperitoneal glucose tolerance test in diabetic mice; format: in vivo; settings: i.p. glucose 1.5 g/kg, n = 5
human IgG1-Fc = human IgG1-Fc (Homo sapiens, UniProt P01857); assay: SPR binding to human IgG1-Fc; settings: read-out: KD for human IgG1-Fc
[7] = Pharmacokinetic studies in diabetic minipigs; format: in vivo, Bama minipigs; settings: s.c., two-compartmental model, n = 3
diabetic mice = assay: Toxicity evaluation and histomorphology in mice; format: in vivo; settings: one week post-injection, 10 mg/kg
[8] = Pharmacokinetics after subcutaneous injection in diabetic mice; format: in vivo; settings: s.c. 12 mg/kg
[9] = Pharmacokinetics after intravenous injection in healthy mice; format: in vivo, C57BL/6J mice; settings: i.v. 1 nmol/kg, two-compartment model, n = 5
type 1 diabetic minipigs [10] = assay: In vivo blood glucose-responsive insulin release in minipigs; settings: for BG rise within 30 minutes: one day after insulin-129, i.v. glucose infusion
human nostrin = molecular target: T1, human nostrin (Homo sapiens, UniProt Q8IVI9); assay: SPR binding to human nostrin; settings: read-out: KD for human nostrin
T1 sequence (Q8IVI9 1-506): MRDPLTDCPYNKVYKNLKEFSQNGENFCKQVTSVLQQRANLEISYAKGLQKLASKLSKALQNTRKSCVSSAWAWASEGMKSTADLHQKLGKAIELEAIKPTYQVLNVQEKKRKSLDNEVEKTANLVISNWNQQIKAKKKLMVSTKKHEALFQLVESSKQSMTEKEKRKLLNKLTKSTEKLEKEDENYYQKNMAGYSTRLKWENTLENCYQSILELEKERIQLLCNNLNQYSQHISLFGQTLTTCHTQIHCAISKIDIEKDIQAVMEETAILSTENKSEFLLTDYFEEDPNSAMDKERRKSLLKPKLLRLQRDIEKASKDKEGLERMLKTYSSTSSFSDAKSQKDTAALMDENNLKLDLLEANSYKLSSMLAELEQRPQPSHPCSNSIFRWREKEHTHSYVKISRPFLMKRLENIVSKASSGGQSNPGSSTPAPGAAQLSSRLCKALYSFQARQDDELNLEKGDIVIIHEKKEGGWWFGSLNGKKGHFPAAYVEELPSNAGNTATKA

[11] = system: STZ-induced type 1 diabetic mice; assay: Long-term therapy as weekly formulation in diabetic mice; format: in vivo, C57BL/6 mice; settings: for BG drop in the first few hours after injection: n = 5
[12] = system: STZ-induced type 1 diabetic mice; assay: Isoglycaemic clamp at hyperglycaemia in diabetic mice; format: in vivo; settings: BG clamped at 400 mg/dL; one day after 12 mg/kg; n = 5
type 1 diabetic minipigs [13] = assay: Fully automated insulin delivery system in diabetic minipigs; format: in vivo; settings: 48 h
healthy mice = assay: Isoglycaemic; format: in vivo; settings: summary statement
mouse nostrin = molecular target: T2, mouse nostrin (Mus musculus, UniProt Q6WKZ7); assay: SPR binding to mouse nostrin; settings: for Kd: read-out: KD for nostrin, SPR, 25 °C, DPBS pH 7.4
T2 sequence (Q6WKZ7 1-506): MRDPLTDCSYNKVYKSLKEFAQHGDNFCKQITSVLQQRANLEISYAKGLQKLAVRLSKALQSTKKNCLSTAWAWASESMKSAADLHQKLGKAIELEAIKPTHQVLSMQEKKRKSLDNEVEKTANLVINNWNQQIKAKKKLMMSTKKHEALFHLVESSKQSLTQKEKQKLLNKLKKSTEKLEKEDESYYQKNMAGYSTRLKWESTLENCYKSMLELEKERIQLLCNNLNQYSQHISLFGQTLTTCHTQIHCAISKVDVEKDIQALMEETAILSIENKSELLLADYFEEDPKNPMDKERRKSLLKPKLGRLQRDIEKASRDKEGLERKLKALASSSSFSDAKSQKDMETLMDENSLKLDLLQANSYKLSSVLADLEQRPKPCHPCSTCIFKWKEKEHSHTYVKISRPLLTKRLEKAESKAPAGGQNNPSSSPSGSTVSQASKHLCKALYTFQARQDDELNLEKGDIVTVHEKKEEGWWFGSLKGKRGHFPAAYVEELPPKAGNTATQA

[14] = five days after 12 mg/kg, n = 5
[15] = one day after 12 mg/kg, i.p. glucose 3 g/kg
[16] = one day after 12 mg/kg, i.p. glucose 3 g/kg, n = 5

Chain of mouse IgG1-Fc (P01868 98-324 limits assumed): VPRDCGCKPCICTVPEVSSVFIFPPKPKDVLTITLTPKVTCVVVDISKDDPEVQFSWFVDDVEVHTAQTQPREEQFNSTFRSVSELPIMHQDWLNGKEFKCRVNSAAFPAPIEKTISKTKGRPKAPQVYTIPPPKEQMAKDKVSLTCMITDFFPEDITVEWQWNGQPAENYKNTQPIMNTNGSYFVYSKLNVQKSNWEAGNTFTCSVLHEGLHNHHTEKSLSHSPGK

Substance: Cy5-labelled insulin-129: insulin-129 labelled with Sulfo-Cy5-NHS
vascular association within the major organs [1]: high level of vascular association

Substance: ^131I-labelled insulin-129: insulin-129 labelled by 131I using the chloramine T labelling method
skin absorption [2]: rapid skin absorption

Substance: insulin glargine [reference compound]
BG-correlated changes of insulin level (type 1 diabetic mice [3]; 400 U/kg, i.p. glucose 3.0 g/kg at three and six hours, n = 5): did not display BG-correlated changes
glycaemic control with consecutive daily injections ([4]; 40 U/kg every 24 hours for seven days, n = 5): poor glycaemic control
time normoglycaemia maintained ([4]; single s.c. 40 U/kg (equivalent to 1.46 mg/kg), n = 5): 4 h
time normoglycaemia maintained ([4]; single s.c. 400 U/kg (equivalent to 14.6 mg/kg), n = 5): 12 h
time BG regulated in the normal range (type 1 diabetic minipigs [5]; Pig-Ⅰ, single dose 0.25 U/kg): less than 12 hours
time BG regulated in the normal range (type 1 diabetic minipigs [5]; Pig-Ⅱ, single dose 0.33 U/kg): less than 24 hours
time BG regulated in the normal range (type 1 diabetic minipigs [5]; Pig-Ⅲ, single dose 0.48 U/kg): less than 12 hours
time BG remained within the target range (70 to 200 mg/dL) (type 1 diabetic minipigs [5]): 42.9%

Substance: insulin icodec [reference compound]
duration relative to insulin-129 at 12 mg/kg ([4]; 400 U/kg): roughly one-third
time normoglycaemia maintained ([4]; single s.c. 400 U/kg (equivalent to 15.3 mg/kg), n = 5): approximately 72 hours

increase in KD for IgG1-Fc (mouse IgG1-Fc; glucose from 5 to 20 mM): 5.0 fold
Kd (mouse IgG1-Fc; 5 mM glucose): 137 nM
Kd (mouse IgG1-Fc; 10 mM glucose): 276 nM
Kd (mouse IgG1-Fc; 20 mM glucose): 691 nM
Kd (mouse IgG1-Fc; absence of glucose): 42.4 nM
Kd (human IgG1-Fc): 36.7 nM
Kd (human nostrin): 241 nM
increase in KD for nostrin (mouse nostrin; glucose from 0 to 20 mM): 19.5 fold
increase in KD for nostrin (mouse nostrin; glucose from 5 to 20 mM): 8.4 fold
Kd (mouse nostrin; 5 mM glucose): 201 nM
Kd (mouse nostrin; 10 mM glucose): 605 nM
Kd (mouse nostrin; 20 mM glucose): 1680 nM
Kd (mouse nostrin; absence of glucose): 86 nM
Substance: insulin-129: recombinant human insulin with 4-carboxy-3-fluorophenylboronic acid (FPBA) covalently conjugated at A1 and B29 sites
BG before glucose administration (type 1 diabetic mice [6]; day 1 after 12 mg/kg): 96.8 ± 19.7 mg/dL
peaking BG within 15 minutes (type 1 diabetic mice [6]; day 1 after 12 mg/kg): 194.8 ± 31.9 mg/dL
BG before glucose administration (type 1 diabetic mice [6]; day 5 after 12 mg/kg): 163.1 ± 27.7 mg/dL
peaking BG within 15 minutes (type 1 diabetic mice [6]; day 5 after 12 mg/kg): 310.3 ± 44.2 mg/dL
half-life [7]: 127.5 ± 36.6 h
histomorphological analysis of major organs by H&E staining (diabetic mice): no apparent pathological alterations
time to peak plasma insulin-129 level ([8]; ELISA): within one hour
peak average plasma insulin-129 level (PIL) ([8]; ELISA, n = 5): 1320.0 ± 41.3 μU/mL
t1/2α ([8]; two-compartment model, n = 5): 5.4 ± 1.3 h
t1/2β ([8]; two-compartment model, n = 5): 147.8 ± 16.8 h
average t1/2β [9]: 112.5 ± 17.4 h
synchronised increase in insulin level upon glucose injection (type 1 diabetic mice [3]; STZ-induced type 1 diabetic mice, summary statement): more than 3 fold
initial PIL (type 1 diabetic mice [3]; [14]): 210.2 ± 31.7 μU/mL
peak PIL (type 1 diabetic mice [3]; five days after 12 mg/kg, i.p. glucose 3 g/kg, n = 5): 573.7 ± 40.0 μU/mL
PIL after decline within 120 minutes (type 1 diabetic mice [3]; [14]): 204.3 ± 52.0 μU/mL
initial PIL (type 1 diabetic mice [3]; one day after 12 mg/kg, n = 5): 258.6 ± 37.6 μU/mL
BG by 45 minutes (type 1 diabetic mice [3]; [15]): below 200 mg/dL
increase in PIL (type 1 diabetic mice [3]; [15]): approximately 4.2 fold
BG spike at 30 minutes (type 1 diabetic mice [3]; [16]): 310.7 ± 29.2 mg/dL
peak PIL (type 1 diabetic mice [3]; [16]): 1080.4 ± 49.6 μU/mL
PIL after decline (type 1 diabetic mice [3]; one day after 12 mg/kg, in tandem with the BG reduction, n = 5): 257.3 ± 45.2 μU/mL
lowest average BG level ([4]; one hour after s.c. 12 mg/kg, mean ± s.d., n = 5, SD): 76.0 ± 6.4 mg/dL
treatment duration among the three insulin analogues ([4]; s.c. 4 mg/kg, insulin-1, insulin-29 and insulin-129, n = 5): longest duration
hypoglycaemia (BG < 70 mg/dL) ([4]; s.c. 4, 8 and 12 mg/kg, any mouse): No hypoglycaemia
extension of normoglycaemia compared with insulin glargine ([4]; single injection): approximately 47.5 folds
time kept normoglycaemic ([4]; single s.c. 4 mg/kg, n = 5): 46 h
time kept normoglycaemic ([4]; single s.c. 8 mg/kg, n = 5): 142 h
time kept normoglycaemic ([4]; single s.c. 12 mg/kg, n = 5): 190 h
baseline serum insulin-129 level (type 1 diabetic minipigs [10]; Pig I): 369.1 μU/mL
peak serum insulin-129 level (type 1 diabetic minipigs [10]; Pig I, glucose infusion): 907.3 μU/mL
baseline serum insulin-129 level (type 1 diabetic minipigs [10]; Pig II): 375.5 μU/mL
peak serum insulin-129 level (type 1 diabetic minipigs [10]; Pig II, glucose infusion): 1108.0 μU/mL
baseline serum insulin-129 level (type 1 diabetic minipigs [10]; Pig III): 430.6 μU/mL
peak serum insulin-129 level (type 1 diabetic minipigs [10]; Pig III, glucose infusion): 1520.5 μU/mL
BG rise within 30 minutes (type 1 diabetic minipigs [10]; Pig Ⅰ): 399.6 mg/dL
BG rise within 30 minutes (type 1 diabetic minipigs [10]; Pig Ⅱ): 316.8 mg/dL
BG rise within 30 minutes (type 1 diabetic minipigs [10]; Pig Ⅲ): 599.4 mg/dL
BG by 45 minutes (type 1 diabetic minipigs [10]; Pigs Ⅰ, Ⅱ and Ⅲ): below 200 mg/dL
rise of serum insulin-129 level from baseline (type 1 diabetic minipigs [10]; glucose infusion, Pigs I, II and III): approximately threefold
normoglycaemia maintained by each injection ([11]; 10 mg/kg then three weekly 4.8 mg/kg s.c.): one week
time remaining effective before BG returned to original level ([11]; after the fourth injection): more than 800 hours
BG drop in the first few hours after injection ([11]; first injection (10 mg/kg s.c.)): 89.6 ± 13.1 mg/dL
BG drop in the first few hours after injection ([11]; fourth weekly injection (4.8 mg/kg s.c.)): 78.8 ± 8.8 mg/dL
stabilised BG ([11]; one day after the fourth injection): approximately 150 mg/dL
BG drop in the first few hours after injection ([11]; second weekly injection (4.8 mg/kg s.c.)): 79.6 ± 12.4 mg/dL
BG drop in the first few hours after injection ([11]; third weekly injection (4.8 mg/kg s.c.)): 77.8 ± 5.4 mg/dL
mean glucose infusion rate compared with insulin glargine (5 U/kg) [12]: comparable mean glucose infusion rates
BG levels below 50 mg/dL (type 1 diabetic minipigs [13]; first of three minipigs): 0%
BG levels below 50 mg/dL, average (type 1 diabetic minipigs [13]; mean ± s.d., n = 3, SD): 1.7 ± 2.2%
BG levels below 50 mg/dL (type 1 diabetic minipigs [13]; second of three minipigs): 1.0%
BG levels below 50 mg/dL (type 1 diabetic minipigs [13]; third of three minipigs): 4.2%
time BG remained within the target range (70 to 200 mg/dL) (type 1 diabetic minipigs [5]): 73.0%
temporal change in blood glucose clearance determined by clamp studies (healthy mice): 2 fold
